Eight molecules from US20240309110A1 (DANMARKS TEKNISKE UNIVERSITET, published 2024) can be followed below.

Substitutions are numbered along the chain they refer to. No end group written: not given here.

The target of test [1] is T1, MUC1 peptide no 1 (bisTn-MUC1): Btn-Ahx-SAPDTRPAPGS*T*APPAHGVTSAPD-OH (N-terminal Btn-Ahx (biotin-aminohexyl); GalNAc (Tn) on the Ser and the Thr marked * in GS*T*AP).
T1 construct: Synthetic MUC1 glycopeptide; also called peptide 1; target peptide 1
T1 peptide: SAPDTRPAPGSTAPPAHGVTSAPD
The test is described as follows: glycopeptide microarray, bar chart with single points [panel C4].

The target in test [2] is T1, MUC1 peptide no 1 (bisTn-MUC1): …. The test is described as follows: glycopeptide microarray, bar chart with single points [panel D3].
The target is the same in test [3]. Kind of test: glycopeptide microarray, bar chart with single points [panel C7].
The target is the same in test [4]. The test is described as follows: glycopeptide microarray.
In test [5] the target is T2, MUC1 peptide no 11 (bisSTnMUC1): GSTAP (not fully specified (residue 2)).
T2 construct: also called glycopeptide 11
T2 peptide: GST(Neu5Ac(a2-6)GalNAc)AP
Kind of test: glycopeptide microarray, signal as heat map.

In test [6] the target is T3, MUC1 peptide no 12 (monoSTnMUC1): GSTAP.
T3 construct: also called glycopeptide 12
T3 peptide: GST(Neu5Ac(a2-6)GalNAc)AP
The test is described as follows: glycopeptide microarray, signal as heat map.

The target in test [7] is T4, MUC1 20-mer glycopeptide no. 24 of Table 5 (VTSAPDTRPAPGSAAPPAHG, Thr to Ala) (GalNAc sites are shown in bold and underlined in Table 5; the marks are lost in the text).
T4 peptide: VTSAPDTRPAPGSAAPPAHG
Kind of test: glycopeptide microarray.

The target in another test is T5, AHGVTSAPDTR (T13 and S14 carry GalNAc (Tn), bold and underlined on the sheet).
T5 construct: also called MUC1 20-mer glycopeptide no
T5 peptide: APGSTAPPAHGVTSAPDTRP
Kind of test: glycopeptide microarray (20-mer MUC1 Tn-glycopeptides printed on a chip), RFU as heat map.

Another test has as its target T6, PAPGSTAAPAH (S13 and T14 carry GalNAc (Tn), bold and underlined on the sheet).
T6 construct: also called MUC1 20-mer glycopeptide no
T6 peptide: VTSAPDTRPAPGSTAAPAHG
The description is as above.

Test [8] addresses MUC1 20-mer glycopeptide no. 29 of Table 5 (…, no Ala substitution) (GalNAc sites are shown in bold and underlined in Table 5; the marks are lost in the text). The test is described as above.

Sequence of MUC1 20-mer glycopeptide no. 29 of Table 5 (…, no Ala substitution) (GalNAc sites are shown in bold and underlined in Table 5; the marks are lost in the text) (peptide, as listed by the source): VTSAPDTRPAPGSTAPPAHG

B1: scFv C4-STnMUC1 (scFv)
scFv: IVMTQSPSSLAVSAGEKVTMSCKSSQSLLNSRTRKNYLAWYQQKPGQSPKLLIYWASTRHTGVPDRFTGSGSGTDFTLTISNVQSEDLAEYFCQQYNSYPYTFGGGTKLEIKRGGGSGGGSGGGSGGGSGGGSQVQMQQSDAELVKPGASVKISCKASGYTFTDHAIHWVKRKPEQGLEWIGYISPGNDDIKYNEKFKGKATLTADKSSSTAYMQLNSLTSEDSAVYFCKRSLLALDYWGQGTTLTVSS
notes: From the STn-template library
In the case of B1, the binding result in [1] is listed as “no binding”.

B2: scFv D3-STnMUC1 (scFv)
scFv: B1 scFv
notes: From the STn-template library
Turning to B2, in test [2], the binding result is “no binding”.

B3: scFv C7-STnMUC1 (scFv)
scFv: VVVTQTPLSLPVSLGDQASISCRSSQSLVHSNGNTYLHWYLQKPGQSPKLLIYKVSNRFSGVPDRFSGSGSGTDFTLKISRVEAEDLGVYFCSQSTHVPRTFGGGTKLEIKRGGGSGGGSGGGSGGGSGGGSQVQMQQSDAELVKPGASVKISCKASGYTFTDHAIHWVKRKPEQGLEWIGYISPGNDDIKYNEKFKGKATLTADKSSSTAYMQLNSLTSEDSAVYFCKRSLLALDYWGQGTTLTVSS
notes: From the STn-template library
Turning to B3, in test [3], the binding result was “no binding”.

B4: scFv G2D11 mutant M1 (LAL) (scFv)
scFv: DVVMTQSHKFMSTSVGDRVSITCKASQDVGTAVAWYQQKPGQSPKLLIYWASTRHTGVPDRFTGSGSGTDFTLTISNVQSEDLADYFCQQYSSYPLTFGGGTKLEMKRGGGGSGGGGSGGGGSGGGGSQVQMQQSDAELVKPGASVKISCKASGYIFADHAIHWVKRKPEQGLEWIGYISPGNDDIKYNEKFKGKATLTADKSSSTAYMQLNSLTSEDSAVYFCKRSLLALDYWGQGTTLTVSS
notes: Mutant of scFv G2D11 with the mutations in the VH domain; '-' stands for the deletion of G102; also called LAL mutant M1
In the case of B4, the binding result in test [4], in test [5] and in test [6] was “no binding” each time.

B5: scFv G2D11 mutant M2 (LAL-TFT) (scFv)
scFv: B4 scFv with I156T, A158T
notes: also called LAL+TFT mutant M2
For B5, the binding result in test [4] is reported as “no binding”.

B6: scFv G2D11 mutant M4 (TFT-G) (scFv)
scFv: DVVMTQSHKFMSTSVGDRVSITCKASQDVGTAVAWYQQKPGQSPKLLIYWASTRHTGVPDRFTGSGSGTDFTLTISNVQSEDLADYFCQQYSSYPLTFGGGTKLEMKRGGGGSGGGGSGGGGSGGGGSQVQMQQSDAELVKPGASVKISCKASGYTFTDHAIHWVKRKPEQGLEWIGYISPGNGDIKYNEKFKGKATLTADKSSSTAYMQLNSLTSEDSAVYFCKRSLPGTFDYWGQGTTLTVSS
notes: The only mutant without LAL; also called TFT mutation only
Consider B6, for which the binding result in [6] was “no binding”.

B7: scFv 5E5 (scFv, V domains shown)
VH: QSDAELVKPGSSVKISCKASGYTFTDHAIHWVKQKPEQGLEWIGHFSPGNTDIKYNDKFKGKATLTVDRSSSTAYMQLNSLTSEDSAVYFCKTSTFFFDYWGQGTTLTVSS
VL: ELVMTQSPSSLTVTAGEKVTMICKSSQSLLNSGDQKNYLTWYQQKPGQPPKLLIFWASTRESGVPDRFTGSGSGDFTLTISSVQAEDLAVYYCQNDYSYPLTFGAGTKLELK
notes: Single chain Fv in the microarray; also called svFV 5E5
Regarding B7, the binding result (in test [7]; with AHGVTSAPDTR; in the test with PAPGSTAAPAH) was “no binding” each time.

B8: scFv 2D9Chi (scFv, V domains shown)
VH: not shown
VL: DIVMSQSPSSLAVSVGEKVTMSCKSSQSLLYSSDQKNYLAWYQQKPGQSPKLLIYWASTRESGVPDRFTGSGSGTDFTLTISSVKAEDLAVYYCQQCYSYPFTFGSGTKLERKR
notes: 2D9Chi comprises the 2D9 VL domain and G2D11 VH domain
Consider B8, for which the binding result in test [8] is recorded as “no binding”.
